Assay results from paper PMC8130932 (PLoS Pathogens, 2021).
Substitutions are numbered along the chain they refer to.

B1: FJ 10B (antibody, V domains shown)
VH: QVQLVQSGAEVKKPGESLRISCKGSGYSFTSYWISWVRQMPGKGLEWMGRIDPSDSYTNYSPSFQGHVTISADKSISTAYLQWSSLKASDTAMYYCARLDPRYGPDYYGMDVWGQGTTVTVSS
VL: AIRMTQSPSSLSASVGDRVTITCRASQSISSYLNWYQQKPGKAPKLLIHAASSLQSGVPSRFSGSGSGTDFTLTMSSLQPEDFATYYCQQSYSTPLTFGGGTKVEIR
notes: source: HEK293T, transfected; culture supernatant or purified
B2: FD 10A (antibody, V domains shown)
VH: EVQLVESGGGLVQPGGSLRLSCAASGFTFSSYWMHWVRQAPGKGLVWVSRINSDGSSTSYADSVKGRFTISRDNAKNTLYLQMNSLRAEDTAVYYCANMAFDIWGQGTMVTVSS
VL: not shown
notes: as for B1
B3: FD 11C (antibody, V domains shown)
VH: EVQLLESGPGLVKPSETLSLTCTVSGGSISSSSYYWGWIRQPPGKGLEWIGSIYYSGSTYYNPSLKSRVTISVDTSKNQFSLKLSSVTAADTAVYYCAREYYYGSETKKYYYYYGMDVWGQGTTVTVSS
VL: not shown
notes: as for B1
B4: FJ 4E (antibody, V domains shown)
VH: QVQLVESGPGLVKPSETLSLTCSVSGGSISSGTYYWSWIRQQPGKGLEWIGYIYNTGRPYYNPFLKSRITISVDSSKNQFSLKLTSVTAADTAVYYCARDEYDSSDSGIQGHWFDPWGQGTLVTVSS
VL: AIRMTQSPSSLSASVGDRVTITCRTSQNINSFLNWYQQKPGKGPNLLIYGAFTLQSGVPSRFSGSGSGTDFTLTISSLQPEDFATYFCQQSYSTPWTFGQGTKVEIK
notes: as for B1
B5: FD 5D (antibody, V domains shown)
VH: EVQLVESGGGLVQPGGSLRLSCAASGFTFSSYSMNWVRQAPGKGLEWVSYISSSSSTIYYADPVKGRFTISRDNAKNSLYLQMNSLRAEDTAVYYCASPGGITAAGTSVLFGYYGMDVWGQGTMVTVSS
VL: not shown
notes: as for B1
B6: FD 7D (antibody, V domains shown)
VH: EVQLVESGAEVKKPGESLRISCKGSGYSFTSYWISWVRQMPGKGLEWMGRIDPSDSYTNYSPSFQGHVTISADKSISTAYLQWSSLKASDTAMYYCARHSDCSSTSCYFVDAFDIWGQGTMVTVSS
VL: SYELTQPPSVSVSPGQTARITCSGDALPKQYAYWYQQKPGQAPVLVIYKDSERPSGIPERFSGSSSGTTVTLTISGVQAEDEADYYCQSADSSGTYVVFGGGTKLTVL
notes: as for B1
B7: FD 11A (antibody, V domains shown)
VH: EVQLVESGGGVVQPGRSLRLSCAASGFTFSSYGMHWVRQAPGKGLEWVAVIWYDGSNKYYADSVKGRFTISRDNSKNTLYLQMNSLRAEDTAVYYCAKGPDILTGYYNYYYYGMDVWGQGTMVTVSS
VL: QSVLTQPPSVSGAPGQRVTISCTGSSSNIGAGYDVHWYQQLPGTAPKLLIYGNSNRPSGVPDRFSGSKSGTSASLAITGLQAEDEADYYCQSYDSSLSGFYVVFGGGTKLTVL
notes: as for B1
B8: FD 7C (antibody, V domains shown)
VH: QLQLQESGPGLVKPSETLSLTCTVSGGSISSYYWSWIRQPPGKGLEWIGYIYYSGSTNYNPSLKSRVTISVDTSKNQFSLKLSSVTAADTAVYYCARDYRFGELFGRFAWFDPWGQGTLVTVSS
VL: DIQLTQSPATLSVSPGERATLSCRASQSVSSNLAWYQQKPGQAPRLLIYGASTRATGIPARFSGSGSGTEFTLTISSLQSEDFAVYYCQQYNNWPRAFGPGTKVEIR
notes: as for B1
B9: EW 9B (antibody, V domains shown)
VH: EVQLVQSGAEVKKPGASVKVSCKASGYTFTSYYMHWVRQAPGQGLEWMGIINPSGGSTSYAQKFQGRVTMTRDTSTSTVYMELSSLRSEDTAVYYCAREDGVVPAANLMISLEDYYYYGMDVWGQGTTVTVSS
VL: EIVLTQSPATLSLSPGERATLSCRASQSVSSYLAWYQQKPGQAPRLLIYDASNRATGIPARFSGSGSGTDFTLTISSLEPEDFAVYYCQQRSNWPLTFGGGTKVDIK
notes: as for B1
B10: FD 1D (antibody, V domains shown)
VH: EVQLVESGGGVVQPGRSLRLSCAASGFTFSSYAMHWVRQAPGKGLEWVAVISYDGSNKYYADSVKGRFTISRDNSKNTLYLQMNSLRAEDTAVYYCARAGSGSYLNWFDPWGQGTLVTVSS
VL: B9 VL with L96I, G100Q, K103R, V104L, D105E
notes: as for B1
B11: FD 11E (antibody, V domains shown)
VH: EVQLVESGGGLVKPGGSLRLSCAASGFTFSSYSMNWVRQAPGKGLEWVSSISSSSSYIYYADSVKGRFTISRDNAKNSLYLQMNSLRAEDTAVYYCASLAAAGPETYYYYGMDVWGQGTMVTVSS
VL: not shown
notes: as for B1
B12: FD 1E (antibody, V domains shown)
VH: B11 VH with V5L
VL: not shown
notes: as for B1
B13: FJ 1C (antibody, V domains shown)
VH: QVQLQESGPGLVKPSETLSLTCTVSGYSISSGYYWGWIRQPPGKGLEWIGSIYHSGSTYYNPSLKSRVTISVDTSKNQFSLKLSSVTAADTAVYYCARDKALLWFGELFTNLFDYWGQGTLVTVSS
VL: QSALTQPASVSGSPGQSITISCTGTSSDVGGYNYVSWYQQHPGKAPKLMIYEVSNRPSGVSNRFSGSKSGNTASLTISGLQAEDEANYYCSSYTSSSTLVFGGGTKLTVL
notes: as for B1
B14: FD 8B (antibody, V domains shown)
VH: EVQLLESGAEVKKPGASVKVSCKVSGYTLTELSMHWVRQAPGKGLEWMGGFDPEDGETIYAQKFQGRVTMTEDTSTDTAYMELSSLRSEDTAVYYCATAAAINCSSTSCYYYYYYYGMDVWGQGTTVTVSS
VL: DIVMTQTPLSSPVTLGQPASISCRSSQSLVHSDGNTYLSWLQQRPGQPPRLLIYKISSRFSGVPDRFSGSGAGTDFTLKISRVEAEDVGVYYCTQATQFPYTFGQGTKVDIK
notes: as for B1
B15: FG 12C (antibody, V domains shown)
VH: EVQLVESGGGLVQPGRSLRLSCAASGFTFDDYAMHWVRQAPGKGLEWVSGISWNSGSIGYADSVKGRFTISRDNAKNSLYLQMNSLRAEDTALYYCAKDMRVHDYGDYYFDYWGQGTLVTVSS
VL: SYELTQPPSVSVAPGKTARITCGGNNIGSKSVHWYQQKPGQAPVLVIYYDSDRPSGIPERFSGSNSGNTATLTISRVEAGDEADYYCQVWDSSSDHPVFGGGTKLTVL
notes: as for B1
B16: FM 1A (antibody, V domains shown)
VH: EVQLLESGGGVVQPGRSLRLSCAASGFTFSSYGMHWVRQAPGKGLEWVAVIWYDGSNKYYADSVKGRFTISRDNSKNTLYLQMNSLRAEDTAVYYCAREGAVGATRGFDYWGQGTLVTVSS
VL: B15 VL with K16Q, I47V, Y49D, H96Q, P97G
notes: as for B1
B17: FN 8C (antibody, V domains shown)
VH: QVQLVESGGGVVQPGRSLRLSCAASGFTFSSYGMHWVRQAPGKGLEWVAVISYDGSNKYYADTVKGRFTISRDNSKNTLYLQMNSLRAEDTAVYYCARERTYYDILTGYRHYYGMDVWGQGTTVTVSS
VL: B15 VL with K16Q, I47V, Y49D, P97W
notes: as for B1
B18: FN 12A (antibody, V domains shown)
VH: QVQLVQSGAEVKKPGSSVKVSCKASGGTFSSYAISWVRQAPGQGLEWMGRIIPILGIANYAQKFQGRVTITADKSTSTAYMELSSLRSEDTAVYYCARSGCSSTSCPSNLYYYYYGMDVWGQGTTVTVSS
VL: QSVLTQPPSVSAAPGQKVTISCSGSSSNIGNNYVSWYQQLPGTAPKLLIYDNNKRPSGIPDRFSGSKSGTSATLGITGLQTGDEADYYCGTWDSSLSALVFGGGTKLTVL
notes: as for B1
B19: FI 3A (antibody, V domains shown)
VH: EVQLLESGGGLIQPGGSLRLSCAASGFTVSSNYMSWVRQAPGKGLEWVSVIYSGGSTYYADSVKGRFTISRDNSKNTLYLQMNSLRAEDTAVYYCARDHVRPGMNIWGQGTMVTVSS
VL: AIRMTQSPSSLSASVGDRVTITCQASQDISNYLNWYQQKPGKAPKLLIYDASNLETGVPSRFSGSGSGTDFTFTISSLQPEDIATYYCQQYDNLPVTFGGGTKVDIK
notes: as for B1

Key:
[1] = target: T1, SARS-CoV-2 spike glycoprotein S1+S2 extracellular domain (SARS-CoV-2, reference sequence, UniProt P0DTC2); assay: ELISA
T1 construct: also called full-length spike glycoprotein ectodomain

[2] = target: T2, SARS-CoV-2 spike glycoprotein, full-length, prefusion-stabilised, on MDCK-SIAT1 cells (SARS-CoV-2, reference sequence, UniProt P0DTC2, 986KV987 to 986PP987 | 682RRAR685 to 682GSAG685); assay: flow cytometry on cells; details: one partner purified
T2 construct: also called MDCK-Spike

Binder | OD450 [1] | binding result [2]
B1 | 1.48 OD450 | –
B2 | 1.78 OD450 | –
B3 | 1.2 OD450 | binds
B4 | 0.26 OD450 | –
B5 | 1.83 OD450 | –
B6 | 1.44 OD450 | –
B7 | 1.64 OD450 | binds
B8 | 1.9 OD450 | binds
B9 | 0.22 OD450 | –
B10 | 0.4 OD450 | –
B11 | 1.45 OD450 | binds
B12 | 1.45 OD450 | binds
B13 | 1.61 OD450 | –
B14 | 1.1 OD450 | –
B15 | 1.74 OD450 | –
B16 | 0.25 OD450 | –
B17 | 0.54 OD450 | –
B18 | 2.24 OD450 | –
B19 | 1.6 OD450 | binds
